Assay [1] has as its target T1, human VEGF-D (human, UniProt O43915 93-201, limits assumed).
T1 construct: Bought protein (R&D Systems); also called Vascular endothelial growth factor D
T1 sequence (looked up): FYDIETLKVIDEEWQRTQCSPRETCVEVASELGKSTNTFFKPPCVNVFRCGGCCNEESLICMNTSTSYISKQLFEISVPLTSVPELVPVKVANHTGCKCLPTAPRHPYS
The assay is described as follows: ELISA, VEGF-D coated on plate, anti-human Fc-HRP detection. The method, then: (§1) To measure binding capacities of fusion polypeptides to each target, ELISA (Enzyme-linked immunosorbent assay) was conducted. On a 96-well MaxiSorp™ flat-bottom plate (Nunc), 50 ul of human VEGF-C, VEGF-D, or Ang2 (R&D Systems) were coated in the concentration of […]. And then, the plate was washed 5 times with PBS containing 0.05% Tween-20, and then, blocked with PBS containing 1% BSA at room temperature for 2 hours. 50 ul of each fusion polypeptide was put in each well according to concentration, and then, the plate was incubated at room temperature for 2 hours. And then, it was washed 5 times with PBS containing 0.05% Tween-20, and then, HRP-conjugated anti-human Fc antibody (Sigma) was diluted to 1:5,000 with PBS containing 1% BSA and reacted at room temperature for 1 hour, and washed 5 times with PBS containing 0.1% Tween-20. Finally, to each well of the plate, 50 μl of TMB substrate (SIGMA) was added to cause color reaction, and then, the reaction was stopped with 50 μl of a 5N H₂SO₄ solution, and OD450 value was measured on a plate reader (Molecular Devices). Thereby, binding capacities (KD) of the manufactured fusion polypeptides to human VEGF-C, VEGF-D or Ang2 protein were measured.
In general terms: In an ELISA, binding on a coated surface is turned into a signal by an enzyme label.

Assay [2] has as its target T2, human VEGF-C (human, UniProt P49767 103-227).
T2 construct: Bought protein (R&D Systems); also called VC; Vascular endothelial growth factor C
T2 sequence (looked up): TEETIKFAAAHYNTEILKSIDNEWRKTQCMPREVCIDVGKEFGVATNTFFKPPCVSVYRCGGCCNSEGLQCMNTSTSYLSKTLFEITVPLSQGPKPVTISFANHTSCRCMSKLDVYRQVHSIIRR
The assay is described as follows: ELISA, VEGF-C coated on plate, anti-human Fc-HRP detection. The method, then: as §1

In assay [3] the target is T3, human Ang2 (human, UniProt O15123 19-496).
T3 construct: Bought protein (R&D Systems); also called A2; angiopoietin 2
T3 sequence (looked up): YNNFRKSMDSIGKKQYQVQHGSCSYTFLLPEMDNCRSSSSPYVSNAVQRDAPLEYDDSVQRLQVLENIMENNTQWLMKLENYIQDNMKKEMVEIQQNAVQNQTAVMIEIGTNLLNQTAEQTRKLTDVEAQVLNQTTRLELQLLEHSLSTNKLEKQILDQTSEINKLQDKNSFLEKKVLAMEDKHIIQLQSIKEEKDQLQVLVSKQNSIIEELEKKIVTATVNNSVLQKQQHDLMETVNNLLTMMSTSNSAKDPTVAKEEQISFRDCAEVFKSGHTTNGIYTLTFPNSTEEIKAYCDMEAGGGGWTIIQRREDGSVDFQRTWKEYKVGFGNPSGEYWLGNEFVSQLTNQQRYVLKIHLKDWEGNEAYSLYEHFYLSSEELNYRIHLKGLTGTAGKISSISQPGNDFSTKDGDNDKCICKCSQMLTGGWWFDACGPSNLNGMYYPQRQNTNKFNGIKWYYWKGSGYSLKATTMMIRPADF
The assay is described as follows: ELISA, Ang2 coated on plate, anti-human Fc-HRP detection. The method, then:
as §1

B1: AV-body 1 (Fc fusion)
chain: AMDLILINSLPLVSDAETSLTCIASGWRPHEPITIGRDFEALMNQHQDPLEVTQDVTREWAKKVVWKREKASKINGAYFCEGRVRGEAIRIRTMKMRQQASFLPATLTMTVDKGDNVNISFKKVLIKEEDAVIYKNGSFIHSVPRHEVPDILEVHLPHAQPQDAGVYSARYIGGNLFTSAFTRLIVRRCEAQKWGPECNHLCTACMNNGVCHEDTGECICPPGFMGRTCEKACELHTFGRTCKERCSGQEGCKSYVFCLPDPYGCSCATGWKGLQCNEACHPGFYGPDCKLRCSCNNGEMCDRFQGCLCSPGWQGLQCEREGIEFSPFIASVSDQHGVVYITENKNKTVVIPCLGSISNLNVSLCARYPEKRFVPDGNRISWDSKKGFTIPSYMISYAGMVFCEAKINDESYQSIMYIVVVVGYRIYDVVLSPSHGIELSVGEKLVLNCTARTELNVGIDFNWEYPSSKHQHKKLVNRDLKTQSGSEMKKFLSTLTIDGVTRSDQGLYTCAASSGLMTKKNSTFVRVHE
notes: also called fusion polypeptide AV-body 1; Tie2-ECD/R2-2/R2-3-Fc; not shown: Fc fragment of human IgG1, fused to the C-terminus through the pFUSE-hIgG1-Fc1 vector (InvivoGen)
Turning to B1, the Kd (as a rule, the equilibrium constant for the complex coming apart) in assay [1] came to 170 nM; in assay [2], 130 nM; in assay [3], 45 nM.

B2: V-body (Fc fusion)
chain: ASDYRSPFIASVSDQHGVVYITENKNKTVVIPCLGSISNLNVSLCARYPEKRFVPDGNRISWDSKKGFTIPSYMISYAGMVFCEAKINDESYQSIMYIVVVVGEQPFINKPDTLLVNRKDAMWVPCLVSIPGLNVTLRSQSSVLWPDGQEVVWDDRRGMLVSTPLLHDALYLQCETTWGDQDFLSNPFLVHITG
notes: Expressed in 293-F cells and purified on MabSelect SuRe; also called fusion polypeptide V-body; R2-2/R3-2-Fc; not shown: Fc fragment of human IgG1, fused to the C-terminus through the pFUSE-hIgG1-Fc1 vector (InvivoGen)
As to B2, the Kd in assay [1] and in assay [2] was 100 nM each time. The binding result in assay [3] is recorded as “no binding”.

B3: AV-body 2 (Fc fusion)
chain: AMDLILINSLPLVSDAETSLTCIASGWRPHEPITIGRDFEALMNQHQDPLEVTQDVTREWAKKVVWKREKASKINGAYFCEGRVRGEAIRIRTMKMRQQASFLPATLTMTVDKGDNVNISFKKVLIKEEDAVIYKNGSFIHSVPRHEVPDILEVHLPHAQPQDAGVYSARYIGGNLFTSAFTRLIVRRCEAQKWGPECNHLCTACMNNGVCHEDTGECICPPGFMGRTCEKACELHTFGRTCKERCSGQEGCKSYVFCLPDPYGCSCATGWKGLQCNEACHPGFYGPDCKLRCSCNNGEMCDRFQGCLCSPGWQGLQCEREGIEFMQSKVLLAVALWLCVETRAASDYRSPFIASVSDQHGVVYITENKNKTVVIPCLGSISNLNVSLCARYPEKRFVPDGNRISWDSKKGFTIPSYMISYAGMVFCEAKINDESYQSIMYIVVVVGEQPFINKPDTLLVNRKDAMWVPCLVSIPGLNVTLRSQSSVLWPDGQEVVWDDRRGMLVSTPLLHDALYLQCETTWGDQDFLSNPFLVHITG
notes: also called fusion polypeptide AV-body 2; Tie2-ECD/R2-2/R3-2-Fc; not shown: Fc fragment of human IgG1, fused to the C-terminus through the pFUSE-hIgG1-Fc1 vector (InvivoGen)
As to B3, the Kd in assay [1] was 42 nM; in assay [2] it was 34 nM; in assay [3] it was 20 nM.

(Values after US20150023958A1 (SAMSUNG ELECTRONICS, published 2015).)
